From US10801046B2, “Methods and materials for biosynthesizing multifunctional, multivariate molecules via carbon chain modification” (INVISTA NORTH AMERICA S.A.R.L., priority 2016, dated 2020)

B1: SEQ ID NO: 205: Kuraishia capsulata CBS 1993 carboxylate reductase (protein)
chain: MPSLPLPPYRAVFERAEDITRDALPFPPERNQRGIAVPGSVEPGYSAIYRSAATPDFLYDRVSPELDTYYRILKRSFEIFKDEDCVSERPQTGENSWSDKFVPRSYGEVYHDSLNFGSGLKYLLQKNEFRSGTEIPDKDYIVSIFSRNRAKWLVADISCTLFSLPNTALYDTLGPDTSTYILGLTKSPVVVAASDKISKLLDLKEADPAKLKNLIMLVAMDNLEPEVYSDLSRRAYKLNVKLYEWDQVTEAGILFPHEEVPPAPDSIYSLSFTSGTTGPPKGAILLHSGVAAGVAFTSATIDTPKQKAKLLSILPLAHIYERMTMALQLFRGGCLGFPHQPGPEHIVPNLRLFKPNLFSGVPRLFNKFEGVLKAATVHNPNASPAKRALAKRIIEWKMKQQCSKDGERGESILYDKLLNNKLRAALGFDNLYGVVTGSAPISAETIKFLKAALGVSFHQGYGLTETFAGVCVSAGLETDPGSCGVIGIATECRLKDTPELGYTSSDEGGPRGELLLRGSQVFPGYYKNEEETKKALDEDGWYHTGDIARIDSKCRIYVIDRVKNLFKLSQGEYVAPERIENIYLSSCTDFVSQIYVHGDSFSNYLVGIVGVDILGLSAFLKRKHPDLWRQVEGKTPEEILDIISSSRQLKSAILAQMNRNVSSAGLNGYEKLHNLKIGIEPLKVEDEVLTPTLKLKRNNALTKFNTDLKNLYEEGSLIKNEKL
modifications: Kuraishia capsulata CBS 1993
notes: Kuraishia capsulata CBS 1993 carboxylate reductase
B2: SEQ ID NO: 193: Pseudomonas fluorescens thioesterase (protein, listed as Pseudomonas fluorescens)
chain: MRVWFLSAGLALMCMAQNAAAGTVLIVGDSISAGFGLDTRLGWVSLLEQRLEQEGFDDKVVNASISGDTSAGGQARLPALLAEHKPDLVILELGGNDGLRGMPPTQLQQNLAAMIDSSRQSGAKVLLLGMQLPPNYGKRYTDAFAEVYGKLADDKKIPLVPFFLDGVGGHPDLMQADGLHPAAGAQGKLLENVWPTLKPLL
B3: SEQ ID NO: 191: Pseudoalteromonas sp. SW0106-04 thioesterase (protein)
chain: MSASILRVFIVLLLVTKPLFAWADNQILVLGDSLSAAYGLKQHQGWVQLLQDTYEQQNTPTTLINASISGETTGGALRRLDAILKEHTPTHVLIELGGNDGLRGFPVTKMKANLHALIDKSREAGAEVALMQIRIPPNYGRRYTELFEQSFVDVAKEKQVTLMPFFVEQVATNGELMQNDNIHPNAEAQPILRDIMKTQISNWLTK
modifications: Pseudoalteromonas sp. SW0106-04
notes: Pseudoalteromonas sp; SW0106-04 thioesterase
B4: SEQ ID NO: 190: Bacteroides finegoldii CL09T03C10 thioesterase (protein)
chain: MSESNKIGTYKFVAEPFHVDFNGRLTMGVLGNHLLNCAGFHASDRGFGIASLNEDNYTWVLSRLAIELDEMPYQYEDFSVQTWVENVYRLFTDRNFAIMNKEGKKIGYARSVWAMISLNTRKPADLLALHGGSIVDYICDEPCPIEKPSRIKVTNTQPLATLTAKYSDIDINGHVNSIRYIEHILDLFPIDLYKTKRIRRFEMAYVAESYFGDELTFFCDEANENEFHVEVKKNGSEVVCRSKVIFE
modifications: Bacteroides finegoldii CL09T03C10
notes: Bacteroides finegoldii CL09T03C10 thioesterase
B5: SEQ ID NO: 195: Halobacteriovorax marinus thioesterase (protein, listed as Halobacteriovorax marinus)
chain: MKSPVFKKKYQVSISNVNINKRLGLFGLLGYLQDIATLHAEIAGFGLDEMISSNSFWVLVRQEIRMNKFPKWNDEIEIQTWSRTPQGMYAFREFEFFLNDEKVGSCSTAWMILSGDTRRIKKPDFPIEKINPRLDSLLDYCAERIKVLDNFELVNEIKVRISDLDLNMHVNNTKYTQWVLDSIPIELHKSAKLRNYQINFLKEAHLGDEIDIYRASSAKDESAHDTQFKGIRRSDQSTIFYVNIIADT
modifications: Halobacteriovorax marinus (strain ATCC BAA-682 / DSM 15412 / SJ)
notes: Halobacteriovorax marinus thioesterase
B6: SEQ ID NO: 73: Thalassospira xiamenensis M-5 thioesterase (protein)
chain: MTIQWDEIAKPALPANCGWRGTYRVRYSEIGDNGLAMLPALADYMQDAAGWGARILKLAYDDTVDKGMAWVLARMVIHVRRYPGNGEDIIVETWPSGVARRVATRDFRLIDSSGDVIAVAQSFWVMFDLLERRAASWPDWIEERLPKPPGPKLIEPPFRPPFTTDPLPEIDSIKARPSDLDLYGHVNNVRLMQWVLGATGADSKPDFHPESIDIQFRTECRVQERVTVRQKDGFAAITRDGDGVDLVRAHVVPKNRTALA
modifications: Thalassospira xiamenensis M-5 = DSM 17429
notes: Thalassospira xiamenensis M-5 thioesterase
B7: SEQ ID NO: 82: Vibrio shilonii AK1 thioesterase (protein)
chain: MIRQLSYFVLIVISLASFHAKAATLLILGDSLSAGYNMRAEQSWPTMLSDELSSGDEPMKVINGSVSGDTTSNGLAKLPGLLKQHSPDYVLIELGANDGLRGFQPSIIKNNLASLIEMSQQAGSKVLLMQIRIPPNYGKRYASMFEGIYPALAQESGVPLLPFFLEQVIIKPEWMMEDGLHPKPEAQPFIAQFVAESMQPHL
modifications: Vibrio shilonii AK1
notes: Vibrio shilonii AK1 thioesterase
B8: SEQ ID NO: 86: Marine sediment metagenome thioesterase (protein)
chain: MTVKALTTRLPAPGPQVRYFSALRSAVLCVFLLAAGFCASTSAESDDGVLLVFGDSLSAAYRMDERDGWVALLQQQLREESTALQVVNGSVSGETTAGGLARLPAMLDAHQPDIVMLELGGNDGLRGLPVTSIRQNLERMIQMSQQAGARVILAGIQIPPNYGPRYTAPFYAQYQELADEYGLVLIPFLLEGIADNPALMQDDGIHPTAAAQPMIVDTVWPVLQGVLTATDRP
modifications: Description of Unknown: Marine sediment metagenome
notes: Marine sediment metagenome thioesterase
B9: SEQ ID NO: 188: Vibrio mimicus thioesterase (protein, listed as Vibrio mimicus)
chain: MIRLLSLVLFFCLSAASQASEKLLVLGDSLSAGYQMPIEKSWPSLLPDALLEHGQDVTVINGSISGDTTGNGLARLPQLLDQHTPDLVLIELGANDGLRGFPPKVITSNLSKMISLIKDSGANVVMMQIRVPPNYGKRYSDMFYDIYPKLAEHQQVQLMPFFLEHVITKPEWMMDDGLHPKPEAQPWIAEFVAQELVKHL
B10: SEQ ID NO: 85: Ferrimonas balearica thioesterase (protein)
chain: MVRRSLLILMLCLYQPGAWADQPSILILGDSLSASYGMSEAEGWVKKLQQNLPDAQIINASVSGETSGGGLRRLPGLLQQHQPDWVFVELGGNDGLRGFQPTITENNIEQLITLSKASGAQVLLSEVMVPPNYGRRYAERFQQIYHGLAKEHEVELVPFFMTEIATDPNLMQADGIHPNREAQGRIAAFLLPWFEQAIAE
modifications: Ferrimonas balearica (strain DSM 9799 / CCM 4581 / PAT)
notes: Ferrimonas balearica thioesterase
B11: SEQ ID NO: 189: Sedimenticola thiotaurini thioesterase (protein, listed as Sedimenticola thiotaurini)
chain: MKKLFLLLIFAMSNVPAAEPVILVLGDSLSAAYGIERSRGWVSLLQSRLQQAGYPHRVVNASISGDTTAGGLARLPRALEQFQPDILIIELGGNDGLRGLGNRQTRDHLDQMITLARASHSRPLLLGMMLPPNFGKAFTEKFLQIYRDLAEQRNVPLVPFFLAGVADRPEWMQSDGIHPTAEGQPLMLEHVWEQLQPMLEETSVHSDKSLK
B12: SEQ ID NO: 192: Vibrio mytili thioesterase (protein, listed as Vibrio mytili)
chain: MIRLLSLFLFFSLSTLAHANEKLLVLGDSLSAGYQMPIEKSWPSLLSNALLEHDQDVTVINGSISGDTTGNGLARLPQLLDQHTPDFVILELGANDGLRGFPPKLITANLSKMITMIKNSGAKVFMMQIRVPPNYGKRYSDMFYDIYPKLAEHQQVTLLPFFLEHVVTKPEWMMDDGLHPKPEAQPWIAEFVAQELIKHL
B13: SEQ ID NO: 194: Pseudomonas stutzeri (strain A1501) thioesterase (protein)
chain: MRRWLKCGALALLCWTQGALAGTVLVVGDSISAAFGLETSQGWVHLLQERLVEGDESWRVVNASISGDTTAGGLARLDPLLEEHTPEVVILELGGNDGLRGQSPVQLKQNLADMIDRSREAGAEVLLLGMRMPPNLGQRYTRAFADAFDSLAQEKSVAYVPFLLEGVGGVAGMMQADGIHPTAEAQSQLLETVWPALEPLL
modifications: Pseudomonas stutzeri (strain A1501)
notes: Pseudomonas stutzeri (strain A1501) thioesterase

Legend:
Assay type in all cases: cell-based, Escherichia coli
[1] = In vivo carboxylate reductase screening, substrate consumption by LC-MS, heptanedioate; settings: 541 enzymes screened in vivo
Procedure: To screen carboxylate reductases in vivo, […] T7- pUC expression vectors was co-transformed into T7 Express lysY/Iq with the phosphopantetheinyl transferase sfp from Bacillus subtilis on a T7-pCDF expression vector. Biological duplicates of the resulting strains were incubated in 0.5 mL of terrific broth containing either 1 g/L heptanedioate or 1 g/L monomethyl heptanedioate and supplemented with 0.4 mM IPTG in 96-well deep well plates. The plates were incubated for 30 h at 30° C. in a shaking incubator. The cells were then pelleted, and culture supernatants from the same strains in media containing either heptanedioate or monomethyl heptanedioate were combined. The combined supernatants were analyzed by LC-MS to determine the concentration of heptanedioate and monomethyl heptanedioate. Carboxylate reductase activity on heptanedioate or monomethyl heptanedioate was reflected by consumption of the respective substrate in the medium.

heptanedioyl-ACP = settings: top 150 hits screened in vivo
[2] = system: heptanedioyl-ACP methyl ester

Molecule | activity toward heptanedioyl-ACP in vivo (heptanedioyl-ACP) | other results
B1 | – | substrate preference, heptanedioic acid to 7-oxoheptanoate [1]: preferred acting upon heptanedioic acid to form 7-oxoheptanoate
B2 | displayed considerable activity toward heptanedioyl-ACP | –
B3 | displayed considerable activity toward heptanedioyl-ACP | –
B4 | displayed considerable activity toward heptanedioyl-ACP | –
B5 | displayed considerable activity toward heptanedioyl-ACP | –
B6 | displayed considerable activity toward heptanedioyl-ACP | impact on monomethyl heptanedioate production ([2]; 146 thioesterases screened): promising; activity toward heptanedioyl-ACP methyl ester in vivo ([2]; top 150 hits screened in vivo): showed activity toward heptanedioyl-ACP methyl ester
B7 | displayed considerable activity toward heptanedioyl-ACP | –
B8 | displayed considerable activity toward heptanedioyl-ACP | –
B9 | displayed considerable activity toward heptanedioyl-ACP | –
B10 | displayed considerable activity toward heptanedioyl-ACP | –
B11 | displayed considerable activity toward heptanedioyl-ACP | –
B12 | displayed considerable activity toward heptanedioyl-ACP | –
B13 | displayed considerable activity toward heptanedioyl-ACP | –
